From patent publication US20090075925A1 (published 2009)

T1: rat APOBEC-1 (endogenous, rat liver nuclear extract and McArdle cells) (rat)
T1 sequence (P38483 1-229, looked up): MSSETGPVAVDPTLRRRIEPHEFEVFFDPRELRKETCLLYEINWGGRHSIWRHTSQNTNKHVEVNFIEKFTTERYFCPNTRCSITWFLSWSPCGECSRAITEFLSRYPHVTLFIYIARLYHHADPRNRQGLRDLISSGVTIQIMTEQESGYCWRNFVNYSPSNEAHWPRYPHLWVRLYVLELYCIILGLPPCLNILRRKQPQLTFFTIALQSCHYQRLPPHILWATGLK

B1: ACF of nuclear extract treated with calf intestinal alkaline phosphatase (CIAP) (other, rat, UniProt Q923K9-2 1-586, looked up)
chain: MESNHKSGDGLSGTQKEAALRALVQRTGYSLVQENGQRKYGGPPPGWDTTPPERGCEIFIGKLPRDLFEDELIPLCEKIGKIYEMRMMMDFNGNNRGYAFVTFSNKQEAKNAIKQLNNYEIRNGRLLGVCASVDNCRLFVGGIPKTKKREEILSEMKKVTEGVVDVIVYPSAADKTKNRGFAFVEYESHRAAAMARRRLLPGRIQLWGHPIAVDWAEPEVEVDEDTMSSVKILYVRNLMLSTSEEMIEKEFNSIKPGAVERVKKIRDYAFVHFSNREDAVEAMKALNGKVLDGSPIEVTLAKPVDKDSYVRYTRGTGGRNTMLQEYTYPLSHVYDPTTTYLGAPVFYTPQAYAAIPSLHFPATKGHLSNRALIRTPSVRGAAGVRGLGGRGYLAYTGLGRGYQVKGDKRQDKLYDLLPGMELTPMNTISLKPQGVKLAPQILEEICQKNNWGQPVYQLHSAIGQDQRQLFLYKVTIPALASQNPAIHPFTPPKLSAYVDEAKRYAAEHTLQTLGIPTEGGDAGTTAPTATSATVFPGYAVPSATAPVSTAQLKQAVTLGQDLAAYTTYEVYPTFAVTTRGDGYGTF
modifications: phosphates removed by CIAP treatment of the extract

What was measured:
[1] = biological target: T1, rat APOBEC-1 (endogenous, rat liver …); test: cell-based or functional assay
[2] = biological target: B1; test: co-immunoprecipitation with ACF CT antibody from CIAP-treated McArdle nuclear extract, anti-HA western blot, densitometry (FIG. 2A)
Experimental: Control extracts were treated similarly but lacked phosphatase. […] (n=4, standard deviation+/−0.2). […] Data shown is representative of 3 independent experiments. *Statistical significance was determined to be P≦0.01 by unpaired t-test relative to control. […] Quantitation of relative amounts of ACF bound was performed using PhoshorImager scanning densitometry.

Row | fold reduction of APOBEC-1 recovered with immunoprecipitated ACF (CIAP-treated against control nuclear extract) [2] | Binder | fold decrease in in vitro ApoB mRNA editing activity of CIAP-treated nuclear extract (poisoned-primer extension) [1]
1 |  | B1 | 2.5 fold
2 | 3 fold | HA epitope-tagged APOBEC-1 stably expressed in McArdle RH7777 cells (enzyme, UniProt P38483 1-229, looked up, not shown: small tags and cut ends, also called HA-tagged APOBEC-1) MSSETGPVAVDPTLRRRIEPHEFEVFFDPRELRKETCLLYEINWGGRHSIWRHTSQNTNKHVEVNFIEKFTTERYFCPNTRCSITWFLSWSPCGECSRAITEFLSRYPHVTLFIYIARLYHHADPRNRQGLRDLISSGVTIQIMTEQESGYCWRNFVNYSPSNEAHWPRYPHLWVRLYVLELYCIILGLPPCLNILRRKQPQLTFFTIALQSCHYQRLPPHILWATGLK | 
